These results are taken from IntAct's records for PubMed 21565615.

The labels stand for the following.
B1: Protein c-Fos (Mus musculus), P01101 (parent)
chain: MMFSGFNADYEASSSRCSSASPAGDSLSYYHSPADSFSSMGSPVNTQDFCADLSVSSANFIPTVTAISTSPDLQWLVQPTLVSSVAPSQTRAPHPYGLPTQSAGAYARAGMVKTVSGGRAQSIGRRGKVEQLSPEEEEKRRIRRERNKMAAAKCRNRRRELTDTLQAETDQLEDEKSALQTEIANLLKEKEKLEFILAAHRPACKIPDDLGFPEEMSVASLDLTGGLPEASTPESEEAFTLPLLNDPEPKPSLEPVKSISNVELKAEPFDDFLFPASSRPSGSETSRSVPDVDLSGSFYAADWEPLHSNSLGMGPMVTELEPLCTPVVTCTPGCTTYTSSFVFTYPEADSFPSCAAAHRKGSSSNEPSSDSLSSPTLLAL

Variants of B1 are the subject of the assay. The conditions noted are these: with esr2_mouse Esr2, O08537.
esr2_mouse Esr2, O08537, sequence (O08537 whole entry): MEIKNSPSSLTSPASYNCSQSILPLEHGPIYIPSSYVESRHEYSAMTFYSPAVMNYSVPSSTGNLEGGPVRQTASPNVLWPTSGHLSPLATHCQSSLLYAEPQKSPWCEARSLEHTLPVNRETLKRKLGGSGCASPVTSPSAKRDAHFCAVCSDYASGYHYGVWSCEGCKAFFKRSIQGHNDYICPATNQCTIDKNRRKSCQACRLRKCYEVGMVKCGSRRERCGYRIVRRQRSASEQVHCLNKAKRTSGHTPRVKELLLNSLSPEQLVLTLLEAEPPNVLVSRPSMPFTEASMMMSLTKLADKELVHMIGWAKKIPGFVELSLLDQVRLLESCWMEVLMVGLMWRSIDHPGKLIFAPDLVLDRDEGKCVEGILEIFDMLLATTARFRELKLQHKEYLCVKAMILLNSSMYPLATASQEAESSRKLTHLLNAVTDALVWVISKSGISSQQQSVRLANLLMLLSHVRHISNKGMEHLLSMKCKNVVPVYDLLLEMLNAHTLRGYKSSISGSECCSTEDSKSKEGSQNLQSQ
Turning to S362A, the “effect of a mutation on the interaction” value is “decreasing interaction”.

For S362E, the “effect of a mutation on the interaction” value was “increasing interaction”.
